# T1: IL-2 receptor α (UniProt P01589 22-213, limits assumed)
# T1 construct: BLI used Anti-human IgG Fc Capture (AHC) probes with the IL-2 mutant diluted as analyte; also called IL-2Rα; CD25
# T1 sequence (looked up): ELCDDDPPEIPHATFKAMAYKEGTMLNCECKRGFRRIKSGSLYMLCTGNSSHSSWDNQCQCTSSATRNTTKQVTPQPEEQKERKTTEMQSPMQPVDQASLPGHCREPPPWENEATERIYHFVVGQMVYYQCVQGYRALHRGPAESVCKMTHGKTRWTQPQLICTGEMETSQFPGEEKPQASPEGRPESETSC
# T2: IL-2 receptor β (UniProt P14784 27-239, limits assumed)
# T2 construct: BLI used Anti-human IgG Fc Capture (AHC) probes with the IL-2 mutant diluted as analyte; also called IL-2Rβ; CD122
# T2 sequence (looked up): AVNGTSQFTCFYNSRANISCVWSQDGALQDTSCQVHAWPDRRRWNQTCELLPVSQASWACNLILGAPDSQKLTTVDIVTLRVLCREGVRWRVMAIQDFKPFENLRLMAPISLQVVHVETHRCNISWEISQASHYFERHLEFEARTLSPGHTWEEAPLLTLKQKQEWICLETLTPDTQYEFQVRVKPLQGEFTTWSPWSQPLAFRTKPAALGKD
# Legend:
# IL-2 receptor α [1] = molecular target: T1, IL-2 receptor α; assay: BLI, AHC probes
# IL-2 receptor α [2] = molecular target: T1, IL-2 receptor α; assay: BLI with AHC probes; C125A protein in 3-fold dilutions from 100 nM to 1.23 nM
# IL-2 receptor β = molecular target: T2, IL-2 receptor β; assay: BLI, AHC probes, IL-2 diluted 3-fold from 1000 nM to 12.35 nM
binding result (IL-2 receptor α [2]),Kd (IL-2 receptor β),Binder,binding result (IL-2 receptor α [1])
–,–,"IL-2 mutant 21-C1 (ligand, Expressed in Expi293; also called 1.21-C1) APTSSSTKKTQLQLEHLLLDLQMILNGINNYKNPLLTDMLTLHFYMPKKATELKHLQCLEEELKPLEEVLNFAQSKNFHLRPRDLISNINVIVLELKGSETTFMCEYADETATIVEFLNRWITFCQSIISTLT",no binding (tested: 100 nM highest concentration)
no binding (tested: 100 nM),–,IL-2 mutant 23-C8-C125A (ligand) APTSSSTKKTQLQLEHLLLDLQMILNGINNYKNPGLTDMLTFNFYMPKKATELKHLQCLEEELKPLEEVLNFAQSKNFHLRPRDLISNINVIVLELKGSETTFMCEYADETATIVEFLNRWITFAQSIISTLT,–
no binding (tested: 100 nM),–,IL-2 mutant 24-D2-C125A (ligand) APTSSSTKKTQLQLEHLLLDLQMILNGINNYKNPELTDMLTFKFYMPKKATELKHLQCLEEELKPLEEVLNGAQSKNFHLRPRDLISNINVIVLELKGSETTFMCEYADETATIVEFLNRWITFAQSIISTLT,–
–,50 nM,"IL-2 mutant 21-F9 (ligand, Expressed in Expi293; also called 2.21-F9) APTSSSTKKTQLQLEHLLLDLQMILNGINNYKNPMLTDMLTVGFFMPKKATELKHLQCLEEELKPLEEVLNFAQSKNFHLRPRDLISNINVIVLELKGSETTFMCEYADETATIVEFLNRWITFCQSIISTLT",no binding (tested: 100 nM highest concentration)
no binding (tested: 100 nM),–,IL-2 mutant 22-E8-C125A (ligand) APTSSSTKKTQLQLEHLLLDLQMILNGINNYKNPDLTEMLTFKFYMPKKATELKHLQCLEEELKPLEEVLNQAQSKNFHLRPRDLISNINVIVLELKGSETTFMCEYADETATIVEFLNRWITFAQSIISTLT,–
–,–,"IL-2 mutant 21-F10 (ligand, Expressed in Expi293; also called 3.21-F10) APTSSSTKKTQLQLEHLLLDLQMILNGINNYKNPELTDMLTFKFYMPKKATELKHLQCLEEELKPLEEVLNAAQSKNFHLRPRDLISNINVIVLELKGSETTFMCEYADETATIVEFLNRWITFCQSIISTLT",no binding (tested: 100 nM highest concentration)
–,–,"IL-2 mutant 24-C2 (ligand, Expressed in Expi293; also called 11.24-C2) APTSSSTKKTQLQLEHLLLDLQMILNGINNYKNPDLTEMLTFKFYMPKKATELKHLQCLEEELKPLEEVLNSAQSKNFHLRPRDLISNINVIVLELKGSETTFMCEYADETATIVEFLNRWITFCQSIISTLT",no binding (tested: 100 nM highest concentration)
–,–,"IL-2 mutant 23-C8 (ligand, Expressed in Expi293; also called 9.23-C8) APTSSSTKKTQLQLEHLLLDLQMILNGINNYKNPGLTDMLTFNFYMPKKATELKHLQCLEEELKPLEEVLNFAQSKNFHLRPRDLISNINVIVLELKGSETTFMCEYADETATIVEFLNRWITFCQSIISTLT",no binding (tested: 100 nM highest concentration)
–,–,"IL-2 mutant 24-C6 (ligand, Expressed in Expi293; also called 12.24-C6) APTSSSTKKTQLQLEHLLLDLQMILNGINNYKNPELTEMLTFKFYMPKKATELKHLQCLEEELKPLEEVLNAAQSKNFHLRPRDLISNINVIVLELKGSETTFMCEYADETATIVEFLNRWITFCQSIISTLT",no binding (tested: 100 nM highest concentration)
–,–,"IL-2 mutant 24-D2 (ligand, Expressed in Expi293; also called 13.24-D2) APTSSSTKKTQLQLEHLLLDLQMILNGINNYKNPELTDMLTFKFYMPKKATELKHLQCLEEELKPLEEVLNGAQSKNFHLRPRDLISNINVIVLELKGSETTFMCEYADETATIVEFLNRWITFCQSIISTLT",no binding (tested: 100 nM highest concentration)
no binding (tested: 100 nM),–,IL-2 mutant 24-C2-C125A (ligand) APTSSSTKKTQLQLEHLLLDLQMILNGINNYKNPDLTEMLTFKFYMPKKATELKHLQCLEEELKPLEEVLNSAQSKNFHLRPRDLISNINVIVLELKGSETTFMCEYADETATIVEFLNRWITFAQSIISTLT,–
–,–,"IL-2 mutant 22-B2 (ligand, Expressed in Expi293; also called 5.22-B2) APTSSSTKKTQLQLEHLLLDLQMILNGINNYKNPSLTDMLTLQFYMPKKATELKHLQCLEEELKPLEEVLNFAQSKNFHLRPRDLISNINVIVLELKGSETTFMCEYADETATIVEFLNRWITFCQSIISTLT",no binding (tested: 100 nM highest concentration)
–,–,"IL-2 mutant 22-A4 (ligand, Expressed in Expi293; also called 4.22-A4) APTSSSTKKTQLQLEHLLLDLQMILNGINNYKNPGLTDMLTIQFFMPKKATELKHLQCLEEELKPLEEVLNFAQSKNFHLRPRDLISNINVIVLELKGSETTFMCEYADETATIVEFLNRWITFCQSIISTLT",no binding (tested: 100 nM highest concentration)
no binding (tested: 100 nM),–,IL-2 mutant 24-E4-C125A (ligand) APTSSSTKKTQLQLEHLLLDLQMILNGINNYKNPDLTDMLTFKFYMPKKATELKHLQCLEEELKPLEEVLNAAQSKNFHLRPRDLISNINVIVLELKGSETTFMCEYADETATIVEFLNRWITFAQSIISTLT,–
–,–,"IL-2 mutant 22-D11 (ligand, Expressed in Expi293; also called 6.22-D11) APTSSSTKKTQLQLEHLLLDLQMILNGINNYKNPDLTDMLTLRFFMPKKATELKHLQCLEEELKPLEEVLNFAQSKNFHLRPRDLISNINVIVLELKGSETTFMCEYADETATIVEFLNRWITFCQSIISTLT",no binding (tested: 100 nM highest concentration)
no binding (tested: 100 nM),–,IL-2 mutant 21-F10-C125A (ligand) APTSSSTKKTQLQLEHLLLDLQMILNGINNYKNPELTDMLTFKFYMPKKATELKHLQCLEEELKPLEEVLNAAQSKNFHLRPRDLISNINVIVLELKGSETTFMCEYADETATIVEFLNRWITFAQSIISTLT,–
–,–,"IL-2 mutant 22-E8 (ligand, Expressed in Expi293; also called 7.22-E8) APTSSSTKKTQLQLEHLLLDLQMILNGINNYKNPDLTEMLTFKFYMPKKATELKHLQCLEEELKPLEEVLNQAQSKNFHLRPRDLISNINVIVLELKGSETTFMCEYADETATIVEFLNRWITFCQSIISTLT",no binding (tested: 100 nM highest concentration)
–,–,"IL-2 mutant 23-H9 (ligand, Expressed in Expi293; also called 10.23-H9) APTSSSTKKTQLQLEHLLLDLQMILNGINNYKNPGLTDMLTYSFDMPKKATELKHLQCLEEELKPLEEVLNLAQSKNFHLRPRDLISNINVIVLELKGSETTFMCEYADETATIVEFLNRWITFCQSIISTLT",no binding (tested: 100 nM highest concentration)
–,–,"IL-2 mutant 24-E4 (ligand, Expressed in Expi293; also called 14.24-E4) APTSSSTKKTQLQLEHLLLDLQMILNGINNYKNPDLTDMLTFKFYMPKKATELKHLQCLEEELKPLEEVLNAAQSKNFHLRPRDLISNINVIVLELKGSETTFMCEYADETATIVEFLNRWITFCQSIISTLT",no binding (tested: 100 nM highest concentration)
